Self-cleavage data for 54 variants are collected here from the RNAGym collection of RNA variant scans (doi:10.7554/elife.80360).

B1: Twister Ribozyme (parent)
chain: AACACUGCCAAUGCCGGUCCCAAGCCCGGAUAAAAGUGGAGGGGGCGG

In this data set the parent is B1. The data set can be described thus: self-cleavage, relative activity (ratio to wild type); higher = more cleavage; co-transcriptional.
For the variant AACACUGCUACUGCCGGUCCCAAGCCCGGAUAAAAGUGGAGGGGGCGG [C9U A11C], the self-cleavage was determined as 0.736.
Regarding AACACUGCCAAUGCCGGCCUCAAGCCCGGAUAAAAGUGGAGGGGGCGG [U18C C20U], the self-cleavage is 0.375.
As for AACACUGCCUAUGCAGGUCCCAAGCCCGGAUAAAAGUGGAGGGGGCGG [A10U C15A], the self-cleavage stood at 0.619.
The figure for AACACUGCCAAUGCCGGUCCCAAGCCCGGAUAAAAGUGGAGGGUGGGG [G44U C46G] is 0.728.
With AACACUUCCAAUGCCGGUCCCAAGCCCGGAUAAAAGUGGAGGGAGCGG [G7U G44A] the figure was 0.19; with AACACUGCCAAUGCCGGUCCCAAGCCCGGAUACAAAUGGAGGGGGCGG [A33C G36A], 0.175; with AACACUGACAGUGCCGGUCCCAAGCCCGGAUAAAAGUGGAGGGGGCGG [C8A A11G], 0.588.
For AACACUACCAAUGCCGGUCCCAAGCCCGGAUACAAGUGGAGGGGGCGG [G7A A33C], the self-cleavage amounted to 0.211.
With CACACUGCCAAUGCCGGUCCCAAGCCCGGAAAAAAGUGGAGGGGGCGG [A1C U31A] the figure was 0.168.
The figure for AACACUCCCAAUGCCGGUCCCAAGCCCGGAUAAAAGUGGAGGGGGCCG [G7C G47C] is 0.122; for AAUACUGCCAAUGCCGGUCCCAAGCCCGGAUAAAAGUGGACGGGGCGG [C3U G41C] it is 0.099; for AACACUGCCAAUGCCGGUCGCAAGCCUGGAUAAAAGUGGAGGGGGCGG [C20G C27U] it is 0.0791.
As for AACACUGCCAAUGCCGGUCCCAAGUCCGGAUAAAAGUGGAUGGGGCGG [C25U G41U], the self-cleavage turned out to be 0.198.
For the variant AACACUGCCAAUGCCGUUCCCAAGCCCAGAUAAAAGUGGAGGGGGCGG [G17U G28A], the self-cleavage was found to be 0.11.
For AACACUGCCAAUGCCGGUCCCCAGCCCGGAUAAAAGUGGGGGGGGCGG [A22C A40G], the self-cleavage came to 0.128.
With AACACUGCGAAUGCCGGUCCCAAGCCCGGAUAAAAGUGGAGGGGUCGG [C9G G45U] the figure was 0.205; with AACACUGCCAAUGCCGGACCCAAGCCCGGAUAAAAGUGGAGGGUGCGG [U18A G44U], 0.543; with AACACUGCCAAUGCCGGUCCCAAGCCCGGCUAAAAGUUGAGGGGGCGG [A30C G38U], 0.715.
The figure for AACACUGGCAAUGCCGGUCCCAAGCCCAGAUAAAAGUGGAGGGGGCGG [C8G G28A] is 0.0928; for AACACUGCCAAUGCCGGUCCCAAGCCCGGAUAAAAGUGGAGGGGGUAG [C46U G47A] it is 0.874.
As to AACACUGCCAAUGCCGGUCCCAAGCCCACAUAAAAGUGGAGGGGGCGG [G28A G29C], the self-cleavage stood at 0.71.
The figure for UACACUGACAAUGCCGGUCCCAAGCCCGGAUAAAAGUGGAGGGGGCGG [A1U C8A] is 0.0697; for AACACUGCCAAUGCCGGUCCCAAGCCCGGAUAAAAAUGCAGGGGGCGG [G36A G39C] it is 0.115.
The figure for AACACUGCCAGUGCCGGUCCCAAGCCCGGAUAAAACUGGAGGGGGCGG [A11G G36C] is 0.0984; for AACACUGCCAAUGCCGGUCCCAAGCCCGGAUAACAGUGGAGGGGGGGG [A34C C46G] it is 0.154.
The figure for AACACUGCCAAUGCCGGUCCCAUGCCCGCAUAAAAGUGGAGGGGGCGG [A23U G29C] is 0.0484; for AACACUGCCAAUGCCGGUCCCAAGCCCGGAUAUAAGUGGAGGGGGCGA [A33U G48A] it is 0.889.
Consider AAGACUGCCAAUUCCGGUCCCAAGCCCGGAUAAAAGUGGAGGGGGCGG [C3G G13U], for which the self-cleavage was 0.0808.
The figure for AACACUGCCAAUGACGGUCCCAAGCGCGGAUAAAAGUGGAGGGGGCGG [C14A C26G] is 0.118; for AACACUGCCAAUGCCGGUCCCAAGCCCCGAUAAAAGUGGAGGGGGCAG [G28C G47A] it is 0.28; for AACACUGCUAAUGGCGGUCCCAAGCCCGGAUAAAAGUGGAGGGGGCGG [C9U C14G] it is 0.0927.
For AACACUGCCAAUGCCGGUCCCAAACCCGGAAAAAAGUGGAGGGGGCGG [G24A U31A], the self-cleavage came out at 0.106.
Turning to AACACUGCCAAUGCCGGUCCCAAGCCCGGCUAAAAGUGGCGGGGGCGG [A30C A40C], the self-cleavage amounted to 0.103.
The figure for AUCACUGCCAAUUCCGGUCCCAAGCCCGGAUAAAAGUGGAGGGGGCGG [A2U G13U] is 0.103; for AACACUGCCAAAGCCGGUCCCAAGCGCGGAUAAAAGUGGAGGGGGCGG [U12A C26G] it is 0.446.
On to AACACUGCAAAUGCCGGUCCCCAGCCCGGAUAAAAGUGGAGGGGGCGG [C9A A22C], for which the self-cleavage came to 0.642.
In the case of UACACUGCCGAUGCCGGUCCCAAGCCCGGAUAAAAGUGGAGGGGGCGG [A1U A10G], the self-cleavage was 0.0651.
The figure for AACAAAGCCAAUGCCGGUCCCAAGCCCGGAUAAAAGUGGAGGGGGCGG [C5A U6A] is 0.0843; for AACACUGCCAAUGCCGGUCCCAAGCCCGAAUAAAAGUGGAGGGGGGGG [G29A C46G] it is 0.838; for AACACUGCCAAUGCCGGUCCCAAGCCCGGAUAAAAGUGGAGGUGGCAG [G43U G47A] it is 0.201.
On to AACACUGCCAAUGCCGGUCCCAAGCCCGGAUAAAGGUGGAGGGGGCGA [A35G G48A], for which the self-cleavage was 0.913.
The figure for AACACUGCCAAUGCCGGUCGCAAGCCCGGAGAAAAGUGGAGGGGGCGG [C20G U31G] is 0.146; for AACACGGCCAAUGCCGGUCCCAAACCCGGAUAAAAGUGGAGGGGGCGG [U6G G24A] it is 0.0855.
With AACACUGCCAAUGCCGGUCCCUAGCCCAGAUAAAAGUGGAGGGGGCGG [A22U G28A], the self-cleavage stood at 0.485.
The figure for AACACUGCCAAUGCCGGUCCCAAGCCCAGAUAAAAGUGCAGGGGGCGG [G28A G39C] is 0.154.
Regarding AACGCUGCCAAUGCCGGUCCCAAGCCCGGAUAAAAGUGGAGUGGGCGG [A4G G42U], the self-cleavage worked out at 0.195.
For the variant CACACUGCCAAUGCCGGUCCCAAGCCCGGAUAAAAGUGUAGGGGGCGG [A1C G39U], the self-cleavage was 0.129.
For the variant AACACUGCCAAUGCCGGUCCCACGCCCGGAUAAAAGUGGAGGGGGAGG [A23C C46A], the self-cleavage worked out at 0.164.
The figure for AACACUGCCAAUGCCGGUCCCAAGCUCGGAUAAAAGUGGUGGGGGCGG [C26U A40U] is 0.131; for AACACUGCCAAUGCCGGUCCCAAGCUCGGAUAAAAGUGGCGGGGGCGG [C26U A40C] it is 0.131.
With AACACUGCCAAUGCCAGUCCCAAGCCCGGAUAAAAGUGGAGGGGGCGG [G16A] the figure was 1.03.
As for AACACUGACAAUGCCGGUACCAAGCCCGGAUAAAAGUGGAGGGGGCGG [C8A C19A], the self-cleavage was determined as 0.0947.
In the case of AACACUGCCAAUGCCGGUCCCAAGCCCGGAUCAAAGUGGAGAGGGCGG [A32C G42A], the self-cleavage was 0.289.
With AACACUGCCAAUGCCGGUCCCAAGCUCGGAUAAAAGUGGAAGGGGCGG [C26U G41A] the figure was 0.109.
